Results reported in PMC11951571, “Mechanism of non-coding RNA regulation of DNMT3A”.

Tests used:
DNMT3A_FL WT [1] = molecular target: T1, DNMT3A_FL WT (human, UniProt Q9Y6K1 1-912); assay: fluorescence anisotropy; 1 uM protein in complex with 10 nM FAM-H3K4me0 peptide (1-21); 50 uM sinefungin; 50 mM KH2PO4/K2HPO4 pH 7.8, 1 mM EDTA, 1 mM DTT, 0.2 mg/ml BSA, 20 mM NaCl, 50 uM sinefungin (printed 'μm'), room temperature, 5 min
DNMT3A_CD R736A = DNMT3A_CD R736A (human, UniProt Q9Y6K1 634-912, R736A); assay: fluorescence anisotropy; 1 uM protein pre-bound to 10 nM FAM-GCbox30; 50 uM sinefungin; 50 mM KH2PO4/K2HPO4 pH 7.8, 1 mM EDTA, 1 mM DTT, 0.2 mg/ml BSA, 20 mM NaCl, 50 uM sinefungin (printed 'μm'), room temperature, 5 min; conditions: protein: recombinant; tags: His (pET28a, nickel column); chain copies: 4; 25 nt
DNMT3A_CD R729A = DNMT3A_CD R729A (human, UniProt Q9Y6K1 634-912, R729A); assay: as above; conditions: protein: recombinant; tags: His (pET28a, nickel column); chain copies: 2; 25 nt
DNMT3A_CD R771A;DNMT3L = DNMT3A_CD R771A;DNMT3L (human;human, UniProt Q9Y6K1;Q9UJW3 634-912;1-386, R771A|); assay: fluorescence anisotropy; heterotetramer pre-bound to 10 nM FAM-GCbox30; 50 uM sinefungin; 50 mM KH2PO4/K2HPO4 pH 7.8, 1 mM EDTA, 1 mM DTT, 0.2 mg/ml BSA, 20 mM NaCl, 50 uM sinefungin (printed 'μm'), room temperature, 5 min; conditions: protein: recombinant;recombinant; tags: His (pET28a, nickel column);; chain copies: 2;2; 25 nt
DNMT3A_CD WT = DNMT3A_CD WT (human, UniProt Q9Y6K1 634-912); assay: fluorescence anisotropy; 1 uM protein pre-bound to 10 nM FAM-GCbox30; 50 uM sinefungin; anisotropy rises on RNA addition; 50 mM KH2PO4/K2HPO4 pH 7.8, 1 mM EDTA, 1 mM DTT, 0.2 mg/ml BSA, 20 mM NaCl, 50 uM sinefungin (printed 'μm'), room temperature, 5 min; conditions: protein: recombinant; tags: His (pET28a, nickel column); chain copies: 4; 25 nt
DNMT3A_FL WT [2] = molecular target: T1, DNMT3A_FL WT; assay: fluorescence anisotropy; 1 uM protein in complex with 10 nM FAM-H3K4me0 peptide (1-21); 50 uM sinefungin; no anisotropy change; 50 mM KH2PO4/K2HPO4 pH 7.8, 1 mM EDTA, 1 mM DTT, 0.2 mg/ml BSA, 20 mM NaCl, 50 uM sinefungin (printed 'μm'), room temperature, 5 min

T1 sequence (Q9Y6K1 whole entry): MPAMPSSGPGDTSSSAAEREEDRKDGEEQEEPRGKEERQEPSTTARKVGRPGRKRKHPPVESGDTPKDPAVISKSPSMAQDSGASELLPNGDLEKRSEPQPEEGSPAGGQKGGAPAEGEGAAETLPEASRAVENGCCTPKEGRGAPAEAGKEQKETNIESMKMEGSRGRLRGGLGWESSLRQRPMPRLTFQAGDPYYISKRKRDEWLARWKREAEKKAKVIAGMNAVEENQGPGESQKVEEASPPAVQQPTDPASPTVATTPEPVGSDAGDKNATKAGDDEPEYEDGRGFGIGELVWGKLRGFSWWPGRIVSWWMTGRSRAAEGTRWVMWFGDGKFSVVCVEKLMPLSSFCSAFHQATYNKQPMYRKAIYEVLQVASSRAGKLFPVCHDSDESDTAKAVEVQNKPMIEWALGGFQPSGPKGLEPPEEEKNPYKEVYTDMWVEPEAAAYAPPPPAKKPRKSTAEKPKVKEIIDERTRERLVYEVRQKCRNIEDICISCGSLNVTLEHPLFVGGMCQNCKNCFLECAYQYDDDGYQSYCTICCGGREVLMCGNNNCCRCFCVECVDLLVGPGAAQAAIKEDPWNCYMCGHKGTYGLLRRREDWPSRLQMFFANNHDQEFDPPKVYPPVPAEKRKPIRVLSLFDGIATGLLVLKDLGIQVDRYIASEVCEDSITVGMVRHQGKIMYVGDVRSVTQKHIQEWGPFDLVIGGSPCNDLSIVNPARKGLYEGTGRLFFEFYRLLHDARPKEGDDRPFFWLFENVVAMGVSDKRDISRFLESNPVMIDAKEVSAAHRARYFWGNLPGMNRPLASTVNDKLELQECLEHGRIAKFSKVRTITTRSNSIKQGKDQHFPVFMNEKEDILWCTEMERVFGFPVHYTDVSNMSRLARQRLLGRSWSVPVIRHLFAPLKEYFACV
Sequence of DNMT3A_CD R771A;DNMT3L (Q9Y6K1 634-912 R771A, chain 1 of 2): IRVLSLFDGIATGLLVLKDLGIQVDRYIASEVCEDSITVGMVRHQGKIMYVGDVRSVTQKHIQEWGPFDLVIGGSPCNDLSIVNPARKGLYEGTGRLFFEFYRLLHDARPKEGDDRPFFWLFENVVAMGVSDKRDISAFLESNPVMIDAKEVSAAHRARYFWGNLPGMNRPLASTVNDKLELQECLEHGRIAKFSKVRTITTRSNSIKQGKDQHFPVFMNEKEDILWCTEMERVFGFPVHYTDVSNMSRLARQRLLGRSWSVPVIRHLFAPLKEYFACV
Sequence of DNMT3A_CD R771A;DNMT3L (Q9UJW3 whole entry, chain 2 of 2): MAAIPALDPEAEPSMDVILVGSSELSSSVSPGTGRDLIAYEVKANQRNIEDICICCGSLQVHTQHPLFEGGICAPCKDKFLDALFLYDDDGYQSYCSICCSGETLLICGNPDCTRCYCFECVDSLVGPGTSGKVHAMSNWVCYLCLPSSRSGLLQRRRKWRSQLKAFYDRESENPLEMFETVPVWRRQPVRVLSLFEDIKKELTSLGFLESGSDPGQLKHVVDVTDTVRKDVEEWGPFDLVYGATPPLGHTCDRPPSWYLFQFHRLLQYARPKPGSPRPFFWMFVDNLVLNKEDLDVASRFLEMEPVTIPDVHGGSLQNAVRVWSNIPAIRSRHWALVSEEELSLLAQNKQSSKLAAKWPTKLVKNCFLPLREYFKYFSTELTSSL
Sequence of DNMT3A_CD R736A (Q9Y6K1 634-912 R736A): as the sequence (Q9Y6K1 634-912 R771A, chain 1 of 2) above, with R103A, A138R counted along it
Sequence of DNMT3A_CD WT (Q9Y6K1 634-912): as the sequence (Q9Y6K1 634-912 R771A, chain 1 of 2) above, with A138R counted along it
Sequence of DNMT3A_CD R729A (Q9Y6K1 634-912 R729A): as the sequence (Q9Y6K1 634-912 R771A, chain 1 of 2) above, with R96A, A138R counted along it

Row | Binder | binding result (DNMT3A_FL WT [1]) | binding result (DNMT3A_CD R736A) | binding result (DNMT3A_CD R729A) | binding result (DNMT3A_CD R771A;DNMT3L) | binding result (DNMT3A_CD WT) | binding result (DNMT3A_FL WT [2])
1 | GGGGACACGCCCUCUGUUCCCUUAU (ssRNA) [Fos-1 ecRNA] | binds | binds | binds | binds | binds | –
2 | CGACCGCCUACUGAAAGAGGGC (ssRNA) [non-specific RNA] | – | – | – | – | – | no binding
